For 1 molecule, MFI and Kd results are on record in patent US20100330107A1.

Test [1] addresses 24P4C12 (human) (UniProt Q53GD3). In words: FACS on LNCaP cells, ADC at 0.011 nM, anti-hIgG-PE detection.
Test [2] has the same target. As to the kind of experiment: FACS on LNCaP cells, ADC at 0.033 nM, anti-hIgG-PE detection.
Test [3] has the same target. In words: FACS on LNCaP cells, ADC at 0.098 nM, anti-hIgG-PE detection.
For test [4] the target is unchanged. As to the kind of experiment: FACS on LNCaP cells, ADC at 0.293 nM, anti-hIgG-PE detection.
For test [5] the target is unchanged. In words: FACS on LNCaP cells, ADC at 0.878 nM, anti-hIgG-PE detection.
For test [6] the target is unchanged. In words: FACS on LNCaP cells, ADC at 2.634 nM, anti-hIgG-PE detection.
For test [7] the target is unchanged. In words: FACS on LNCaP cells, ADC at 7.901 nM, anti-hIgG-PE detection.
For test [8] the target is unchanged. As to the kind of experiment: FACS on LNCaP cells, ADC at 23.704 nM, anti-hIgG-PE detection.
For test [9] the target is unchanged. As to the kind of experiment: FACS on LNCaP cells, ADC at 71.111 nM, anti-hIgG-PE detection.
Test [10] has the same target. As to the kind of experiment: FACS on LNCaP cells, ADC at 106.667 nM, anti-hIgG-PE detection.
Test [11] has the same target. As to the kind of experiment: FACS on LNCaP cells, ADC at 160.000 nM, anti-hIgG-PE detection.
Test [12] shares this target. In words: FACS saturation binding on LNCaP cells with endogenous 24P4C12, one site binding fit.

Chain of UniProt Q53GD3 (Q53GD3 whole entry): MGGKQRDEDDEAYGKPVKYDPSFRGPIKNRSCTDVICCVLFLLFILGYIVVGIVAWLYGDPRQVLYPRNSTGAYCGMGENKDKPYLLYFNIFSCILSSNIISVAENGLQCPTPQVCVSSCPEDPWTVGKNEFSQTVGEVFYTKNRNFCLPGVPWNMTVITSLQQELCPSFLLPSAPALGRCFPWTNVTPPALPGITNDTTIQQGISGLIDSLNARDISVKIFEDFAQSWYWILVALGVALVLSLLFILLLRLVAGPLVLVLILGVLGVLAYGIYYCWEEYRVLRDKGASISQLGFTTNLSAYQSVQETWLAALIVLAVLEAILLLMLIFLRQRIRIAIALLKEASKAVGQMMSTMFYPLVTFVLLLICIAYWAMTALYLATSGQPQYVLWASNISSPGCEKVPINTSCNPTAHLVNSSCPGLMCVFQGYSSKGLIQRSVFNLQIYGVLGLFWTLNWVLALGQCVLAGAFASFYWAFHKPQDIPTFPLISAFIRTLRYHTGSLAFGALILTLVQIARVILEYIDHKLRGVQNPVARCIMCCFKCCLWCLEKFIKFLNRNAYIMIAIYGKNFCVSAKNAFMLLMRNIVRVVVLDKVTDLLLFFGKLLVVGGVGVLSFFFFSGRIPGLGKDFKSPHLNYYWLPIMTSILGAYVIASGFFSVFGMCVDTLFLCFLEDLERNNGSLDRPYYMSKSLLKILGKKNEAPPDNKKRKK

B1: Ha5-1(5)2.1vcMMAE (antibody, human IgG2, kappa, V domains shown)
VH: QVQLVESGGGVVQPGRSLRLSCAASGFTFSSYGMHWVRQAPGKGLEWVAVMSYDGSKKFYTDSVKGRFTISRDNSKNTLYLQMNSLRAEDTAVYYCARDGGDYVRYHYYGMDVWGQGTTVTVSS
VL: DIQMTQSPSTLSASIGDRVTITCRASQGISYYLAWYQQKPGKIPKLLIYDTSSLQSGVPSRFSGSRSGTDLSLTISSLQPEDVATYYCQRYDSAPLTFGGGTKVEIKR
modifications: vcMMAE (Val-Cit linker with monomethyl auristatin E) on cysteine thiols freed by partial reduction with TCEP; p about 3.6 drugs per antibody; positions not given
Take B1: the MFI with 24P4C12 (human) [1] was 7 MFI; with 24P4C12 (human) [2] it was 9 MFI; in the test with 24P4C12 (human) [3], 15 MFI; with 24P4C12 (human) [4], 28 MFI; in the test with 24P4C12 (human) [5], 54 MFI; with 24P4C12 (human) [6], 70 MFI. In addition, the MFI with 24P4C12 (human) [7] was 86 MFI; in the test with 24P4C12 (human) [8], 97 MFI; with 24P4C12 (human) [9], 108 MFI; with 24P4C12 (human) [10], 114 MFI; in the test with 24P4C12 (human) [11] it was 116 MFI. The same molecule showed a Kd with 24P4C12 (human) [12] of 1.05 nM.
